Laboratory results taken from US20100260765A1 (AstraZeneca / MedImmune, published 2010).

How the values were obtained:
Assay in all cases: cell-based or functional assay
KDR [1] = target: T1, KDR (human, UniProt P35968 20-1356)
KDR [2] = target: T1, KDR; remark: listed apart in the source
KDR [3] = target: T1, KDR; remark: listed apart in the source
KDR [4] = target: T1, KDR; remark: listed apart in the source
KDR [5] = target: T1, KDR; remark: listed apart in the source

T1 sequence (P35968 20-1356): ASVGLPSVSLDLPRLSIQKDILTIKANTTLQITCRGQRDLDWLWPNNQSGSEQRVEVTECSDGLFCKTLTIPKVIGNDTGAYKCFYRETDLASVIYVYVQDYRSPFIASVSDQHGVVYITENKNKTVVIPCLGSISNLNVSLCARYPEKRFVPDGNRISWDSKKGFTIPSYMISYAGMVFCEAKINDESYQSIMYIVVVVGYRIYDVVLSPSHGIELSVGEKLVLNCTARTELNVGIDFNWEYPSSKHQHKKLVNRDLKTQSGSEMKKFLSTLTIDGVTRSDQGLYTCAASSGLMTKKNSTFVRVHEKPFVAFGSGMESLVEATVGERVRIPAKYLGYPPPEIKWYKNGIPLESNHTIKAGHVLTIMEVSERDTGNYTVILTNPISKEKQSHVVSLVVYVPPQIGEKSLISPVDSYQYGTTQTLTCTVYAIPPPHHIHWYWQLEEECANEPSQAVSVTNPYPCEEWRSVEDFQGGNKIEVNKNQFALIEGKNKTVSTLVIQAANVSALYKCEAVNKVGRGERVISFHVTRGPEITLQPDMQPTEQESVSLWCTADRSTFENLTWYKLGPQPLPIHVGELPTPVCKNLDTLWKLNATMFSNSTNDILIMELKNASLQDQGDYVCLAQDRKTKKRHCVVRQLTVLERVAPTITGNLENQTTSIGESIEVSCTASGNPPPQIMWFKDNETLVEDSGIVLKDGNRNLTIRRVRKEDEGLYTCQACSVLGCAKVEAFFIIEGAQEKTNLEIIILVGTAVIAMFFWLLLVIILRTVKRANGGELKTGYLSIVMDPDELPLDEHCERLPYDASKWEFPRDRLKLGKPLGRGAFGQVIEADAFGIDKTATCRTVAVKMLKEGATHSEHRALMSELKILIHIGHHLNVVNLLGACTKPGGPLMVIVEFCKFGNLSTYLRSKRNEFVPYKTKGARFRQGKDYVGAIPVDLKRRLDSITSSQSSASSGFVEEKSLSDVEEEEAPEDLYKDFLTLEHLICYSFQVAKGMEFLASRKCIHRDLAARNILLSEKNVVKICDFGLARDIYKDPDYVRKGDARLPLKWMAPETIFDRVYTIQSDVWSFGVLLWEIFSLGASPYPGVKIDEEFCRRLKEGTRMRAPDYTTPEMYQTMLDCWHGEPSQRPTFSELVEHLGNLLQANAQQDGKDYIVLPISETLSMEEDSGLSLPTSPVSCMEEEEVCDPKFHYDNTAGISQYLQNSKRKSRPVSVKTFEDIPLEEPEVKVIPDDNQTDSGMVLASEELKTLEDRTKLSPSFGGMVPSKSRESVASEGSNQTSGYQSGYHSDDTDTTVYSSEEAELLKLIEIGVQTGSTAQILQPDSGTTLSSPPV

Row | Binder | Activity at 133 nM Antibody Concentration (% Survival Inhibition), Average (KDR [1]) | Activity at 133 nM Antibody Concentration (% Survival Inhibition), N = 1 (KDR [1]) | Activity at 133 nM Antibody Concentration (% Survival Inhibition), N = 2 (KDR [1]) | % of Max VEGF KDR pTyr Activity (at 133 nM antibody concentration), Average (KDR [2]) | % of Max VEGF KDR pTyr Activity (at 133 nM antibody concentration), N = 1 (KDR [2]) | % of Max VEGF KDR pTyr Activity (at 133 nM antibody concentration), N = 2 (KDR [2]) | Activity at 133 nM (% Inhibition), 1-hour Pre-incubation at 4° C., Average (KDR [3]) | Activity at 133 nM (% Inhibition), 1-hour Pre-incubation at 4° C., N = 1 (KDR [3]) | Activity at 133 nM (% Inhibition), 1-hour Pre-incubation at 4° C., N = 2 (KDR [3]) | % Inhibition of VEGF165-mediated 6-keto Prostaglandin F1α release at 133 nM Antibody Concentration, Average (KDR [4]) | % Inhibition of VEGF165-mediated 6-keto Prostaglandin F1α release at 133 nM Antibody Concentration, N = 1 (KDR [4]) | % Inhibition of VEGF165-mediated 6-keto Prostaglandin F1α release at 133 nM Antibody Concentration, N = 2 (KDR [4]) | Activity at 133 nM (% Inhibition), 24-hour Pre-incubation at 37° C., Average (KDR [5]) | Activity at 133 nM (% Inhibition), 24-hour Pre-incubation at 37° C., N = 1 (KDR [5]) | Activity at 133 nM (% Inhibition), 24-hour Pre-incubation at 37° C., N = 2 (KDR [5])
1 | 27A3 (antibody, V domains shown) VH: QLQLQESGPGLVKPSETLSLTCTVSGGSISSRSDYWGWIRQPPGKGLEWIGTIYYSGDTYYNPSLKSRVTISVDTSKNQFSLKLSSVTAADTAVYYCARQQLVLYYFDYWGQGTLVTVSS VL: EIVLTQSPGTLSLSPGERATLSCRASQSVSSSYLAWYQQKPGQAPRLLIYATSNRATGIPDRFSGSGSGTDFTLTISRLEPEDFAVYYCQQHGSSPPLTFGGGTKVEIK | 83% | 86% | 81% | 19% | 22% | 17% | 67% | 63% | 72% | 88% | 54% | 121% | 9% | 19% | 0%
2 | 27D10 (antibody, V domains shown) VH: QLQLQESGPGLVKPSETLSLTCTVSGGSISSRSDYWGWIRQPPGKGLEWIGTIYYSGSTFYNPSLKSRVTISVDTSKNQFSLKLSSVTAADTAVYYCARQQLVLYYFDYWGQGTLVTVSS VL: not shown | 76% | 84% | 68% | 18% | 19% | 17% | 65% | 60% | 69% | 84% | 56% | 111% | 8% | 19% | -4%
3 | 29F7 (antibody, V domains shown) VH: QVQLVQSGAEVKKPGASVKVSCKASGYTFTSYDINWVRQATGQGLEWMGWMNPNSGKTGYAQKFQGRVTMTRSTSISTAYMELSSLRSEDTAVYYCARGGYSNLGWFDPWGQGTLVTVSS VL: DIQMTQSPSSVFASVGDRVTITCRASQGISTWLAWYQQKPGKAPKFLIYAASSLQSGVPSRFSGSGSGTDFTLTISSLQPDDFATYYCQQANNFPFTFGPGTKVDIK | -12% | 3% | -27% | 16% | 19% | 12% | 44% | 36% | 52% | 19% | 1% | 38% | 26% | 23% | 30%
4 | 33C3 (antibody, V domains shown) VH: QVQLVESGGGLVKPGESLRLSCAASGFTFSDYYMSWIRQAPGKGLEWVSYISHGGSTIYYADSVKGRFTISRDNAKNSLYLQMNSLRVEDTAVYFCARDDFWSGYYFNWFDPWGQGALVTVSS VL: DIQMTQYPLSLSASVGDRVTITCRASQSISSFLNWYHQKPGKAPKLLIYGTSSLQSGVPSRFSGSGSGTDFTLTISSLQPEDFATYYCQQTYSIPLTFGGGTNVEIK | 103% | 104% | 102% | 8% | 6% | 10% | 80% | 78% | 83% | 142% | 106% | 178% | 67% | 45% | 88%
5 | 21H9 (antibody, V domains shown) VH: QVPLVESGGGVVQPGRSLRLSCAASGFTFSSYGMHWVRQAPGKGLEWVAVIWYDGSNKYYADSVQGRFTISRDNSKNTLYLQMNSLRAEDTAVYYCARGVTMVRGLIIARYYYGLDVWGQGTTVTVSS VL: DIVMTQTPLSSPVTFGQPASISCRSSQSLVHSDGNTYLSWLQQRPGQPPRLLIYKISNRFFGVPDRFSGSGAGTDFTLKISRVEAEDVGLYYCMQSTQFPLTFGGGTKVEIK | -18% | -20% | -16% | 15% | 16% | 13% | 26% | 21% | 31% | 33% | 5% | 61% | -1% | -3% | 2%
6 | 30D7 (antibody, V domains shown) VH: QVPLVESGGGVVQPGRSLRLSCAASGFTFSSYGMHWVRQAPGKGLEWVAVIWYDGSNKYYADSVKGRFTISRDNSKNTLYLQMNSLRAEDTAVYYCARGVTMVRGVIIARYYYGLDVWGQGTTVTVSS VL: DIVMTQTPLSSPVTLGQPASISCRSSQSLVHSDGNTYLSWLQQRPGQPPRLLIYKISNRFFGVPDRFSGSGAGTDFTLKIGRVEAEDVGLYYCMQSTQFPLTFGGGTKVEIK | -51% | -9% | -92% | 12% | 12% | 12% | 27% | 26% | 28% | 10% | 4% | 15% | 38% | 39% | 37%
